Experimental data reported in the nanobody polyreactivity screen of Harvey et al. (2022).

Assay: yeast display, Sf9 membrane polyspecificity reagent, FACS + sequencing; frameworks hold sequencing errors
Procedure, shortened: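 Galactose induction of a Saccharomyces cerevisiae BJ5465 synthetic nanobody display library ran 36–48 hours. The cells were then stained for 1 hour at 4 °C with 10% biotinylated, detergent-solubilized Sf9 membrane reagent, pulled down on streptavidin microbeads and FACS-sorted into low and high (top ~1%) gates on expression and reagent-binding fluorescence. Labels for polyreactivity follow the gate of origin.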

Row | Sequence | polyreactivity (PSR sort gate)
1 | QVQLVESGGGLVQAGGSLRLSCAASGSISYQNAMGWYRQAPGKERELVAAISGDGDSTYYADSVKGRFTISRDNAKNTVYLQMNSLKPEDTAVYYCAAEPNVYFSVFVLFPYDYWGQGTQVTVSS | low polyreactivity
2 | QVQLVESGGGLVQAGGSLRLSCAASGSISYTYAMGWYRQATGKERELVASISYSEGITYYADSVKGRFTISRDNAKNTVYLQMNSLKPEDTAVYYCAVEGVYPYYDQSEYDYWGQGTQVTVSS | high polyreactivity
3 | QVQLVESGGGLVQAGGSLRLSCAASGSISYVYAMGWYRQAPGKERELFAAISYSDGSTYYADSVKGRFTISRDNAKNTVYLQMISLKPEDTAVYYCAADAVYPFPYYWEYYYWGQGTQVTVSS | high polyreactivity
4 | QVQLVESGGGLVQAGGSLRLSCAASGSITYLYAMGSYRQAPGKERELLASITWSGGSTYYADSVKGRFTISRDNAKNTVYLQMNSLKPEDTAVYDCAALYQPFPWTWDGYYWGQGTQVTVSS | low polyreactivity
5 | QVQLVESGGGLVQAGGSLRLSCAASGSIVGSYAMGWYRQAPGKERELVAGIRSGGSTYYADSVKGRFTISRDNAKNTVYLQMNSLKPEDTAVYYCAGHEEYWGHGTQVTVSS | low polyreactivity
6 | QVQLVESGGGLVQAGGSLRLSCAASGSIVPTYAMGWYRQAPGKERELVAAIRSGSNTYYADSVKGRFTISRDNAKNTVYLQMNSLKPEDTAVYYCNVGPQRKYPGRRTVPFGYWGQGTQVTVSS | low polyreactivity
7 | QVQLVESGGGLVQAGGSLRLSCAASGSIYAINVMGWYRQAPGKERDFDAAISVRSGSTYYADSVKGRITISRDNAKNTVYLQMNSLKPEDTAVIYCAARTSRFWRGGGLDYWGQGTQVTGSS | high polyreactivity
8 | QVQLVESGGGLVQAGGSLRLSCAASGSIYARNAMGWYRQAPGKERELVAAIRYSGGSTYYADSVKGRFTISRDNAKNTVYLQMNSLKPEDTAVYYCAARWGVFGYYYWGQGTQVTVSS | high polyreactivity
9 | QVQLVESGGGLVQAGGSLRLSCAASGSIYDYNTMGWYRQAPGKERELVAAISASGGRTYYADSEKGRFTISRDNAKNTVYLQMNSLKPEDTAVYYCARYYIGYYERFGYDYWGQGTQVTVSS | high polyreactivity
10 | QVQLVESGGGLVQAGGSLRLSCAASGSIYFLYAMGWYRQAPGKERELVAAISWSVDRTYYADSVKGRFTISRDNAKNTVYLQMNSLKPEDTAVYYCAAVHWWSSSLRMYYWGQGTQVTVSS | low polyreactivity
11 | QVQLVESGGGLVQAGGSLRLSCAASGSIYGRNAMGWYRQAPGKERELFAAISSSGGRTYYADSVKGRFTISRDNAKNTVYLQMNSLKPEDTAVYYCAADASYARYYSQYDYWGQGTQVTVSS | high polyreactivity
12 | QVQLVESGGGLVQAGGSLRLSCAASGSIYIVNVMGWYRQAPGKERELVAGITTNGGITYYADSVKGRFTISRDNAKNTVYLQMNSLKPEDTAVYYCATRSGSPSSIEMDYWGQGTQVTVSS | low polyreactivity
13 | QVQLVESGGGLVQAGGSLRLSCAASGSIYPFYAMGWYRQAPGKERELVATISSGDSTHYADSVKGRFTISRDNAKNTVYEQMNSLKPEDTAVYYCNRRNKAQRFFDLGYWGQGTQVTVSS | low polyreactivity
14 | QVQLVESGGGLVQAGGSLRLSCAASGSIYRYTMGWYRQAPGKERELVASISLSGGRTYYADSVKGRFTISRDNAKNTVYLQMNSLKPEDTAVYDCGTDNRYRSSGQWIRRGYWGQGTQVTVSS | high polyreactivity
15 | QVQLVESGGGLVQAGGSLRLSCAASGSIYSYNVMGWYRQAPGKERELVAAITRSGGSTYYADSVKGRFTISRDNAKNTVYLQMNSLKPEDTAVYYCATAYYSTPFREYSYWGQGTQVTVSS | low polyreactivity
16 | QVQLVESGGGLVQAGGSLRLSCAASGSIYTNAMGWYRQAPGKERELVAAISKRGGSTNYADSVKGRFTISRDNAKNTVYLQMNSLKPEDTAVYYCNRTGSTGYVQVWRPGDYWGQGTQVTVSS | high polyreactivity
17 | QVQLVESGGGLVQAGGSLRLSCAASGSIYVLYAMGWYRQAPGKERELVAAISRGVGGKNYADSVKGRFTISRDNAKNTVYLQMNSLIPEDTAVYYCAAQTLRWSHYYYWGQGTQVTVSS | high polyreactivity
18 | QVQLVESGGGLVQAGGSLRLSCAASGSIYVNKAMGWYRQAPGKERELVAAISRSGTRTYYADSVKGRFTISRDNAKNTVYLQMNSLKPEDTAVYYCAVDYYYRMDYWGQGTQVTVSS | high polyreactivity
19 | QVQLVESGGGLVQAGGSLRLSCAASGSIYVYNAMGWYRQAPGKERELVAAIDTVGSTNYADSVKGRFTISRDNAKNTVYLQMNSLKPEDTAVYYCAVVTPYWSFYDQVIPSNYWGEGTQVTVSS | low polyreactivity
20 | QVQLVESGGGLVQAGGSLRLSCAASGSIYWLYAMGWYRQAPGKERELVAAITWSGGRTYYADSVKGRFTISRDNAKYNVYLQMNSLKPEDTAVYYCARRQRPGYSNPARGGKYDYWGQGTQVTVSS | low polyreactivity
21 | QVQLVESGGGLVQAGGSLRLSCAASGSIYWNTMGWYRQAPGKERELVAGISSSGDSTYYADSVKGRFTISRDNAKNTVYLQMNSLKPEDTAVYYCAARTRRFRYYYWGQGTQVTVSS | high polyreactivity

Row | Sequence | polyreactivity (PSR sort gate)
22 | QVQLVESGGGLVQAGGSLRLSCAASGSIYYYAMGWYRQAPGKEMELVAAITRSGGGTYYADSVKGRFTISRDNAKNTVYLQMNSLKPEDTAVYYCAAARYSRAQPNWTYNYWGQGTQVTVSS | high polyreactivity
23 | QVQLVESGGGLVQAGGSLRLSCAASGSLFQPNDRGWYRQAPGKERELVASIRGRGGDTYYADSVKGRFTISRDNAKNTVYLQMNSLKPEDTGGYDCAADYRWGQGTQVTVSS | low polyreactivity
24 | QVQLVESGGGLVQAGGSLRLSCAASGSLFSGYTMAWYSQAPGKERELVAAITRSGGRTYYADSVKGRFTISRDNAKNTVYLQMKSLKPEVTAVNYCAAVDRRGANYNYWGQGTQVTVSS | high polyreactivity
25 | QVQLVESGGGLVQAGGSLRLSCAASGSLFYSYAMGWDRPAPGKERELVAAIRRDGSTNYADSVKGRFTISRDNAKNTVYLQMNSLKPEDTAVYYCNADGWNTYIGPRRYRYDYWGQGTQVTVSS | low polyreactivity
26 | QVQLVESGGGLVQAGGSLRLSCAASGSLFYVYAMGWYRQAPGKERELVAAITNYADSVKGRFTISRDNAKNTVYLQMNSLKPEDTAVYYCAADWWRVEMDYWGQGSQVTVSS | low polyreactivity
27 | QVQLVESGGGLVQAGGSLRLSCAASGSMFAAYAMGWYRQAPGKARELVAAISSGDGTYYADSVKGRFTISRDNAKNTVYLQRNSLKPEDTAVYYCNAYVSQRYRGSRYYYWGQGTQVTLSS | high polyreactivity
28 | QVQLVESGGGLVQAGGSLRLSCAASGSMFSHYTMGWYRQAPGQERELVAAITNGGITNYADAVKGRFTISRDNAKNTVYLQMNSLKPEDTAVYYCAADWWYGYSNYDYWGQGTQVTVSS | low polyreactivity
29 | QVQLVESGGGLVQAGGSLRLSCAASGSMFVTNALGWYRQAPGTERELVAAMSVSGGSTYYADSVKGRFTISRDNAKNTVDLQMNSLKPEDTAVYYCNTVRSPPGHDYWGQGTQVTVSS | low polyreactivity
30 | QVQLVESGGGLVQAGGSLRLSCAASGSNFAKNAMGWYRQAPGKERELVAAITSSGGSTYYADSVKGRFTISRDNAKNTVYLQMNSLNPEDTAVYYCARPNDWYHYHGWYWSIYRYDYWGQGTQVTVSS | high polyreactivity
31 | QVQLVESGGGLVQAGGSLRLSCAASGSNFDTYAMGWYRQAPGKESELVAAITRRAGSTYYADSVKGRFTISRDNAKYTVYLQMNSLKPEDTAVYYCAADFRYPDNYGGYDYWGQGTQVTVSS | low polyreactivity
32 | QVQLVESGGGLVQAGGSLRLSCAASGSNFGEYAMGWYIQAPGKERELVAAISYRGGSTYYADSVKGRFTISRDNAKNTVYLQMNSLKPEDTAVYYCNRDRRRRGAYGRPGGDHWGQGTQVTVSS | high polyreactivity
33 | QVQLVESGGGLVQAGGSLRLSCAASGSNFGIYAMGWYRQAPGKERELVAAISSRGSTYYADSVKGRFTISRDNAKNTVYLQMNSLKPEDTAVYYCAAGYAWYNYWGQGTQVTVSS | high polyreactivity
34 | QVQLVESGGGLVQAGGSLRLSCAASGSNFGRYVMGWYRQAPGKERELVAAITRTGVRTYYADSVKGRFTISRDNANNTVYLQINSLKPEDTAVYYCNRYGARSNDYWGQGTQVTESS | low polyreactivity
35 | QVQLVESGGGLVQAGGSLRLSCAASGSNFGSNAMGWYRQAPGKERELVATISGRGGSTYYADSVKGRFTISRDNAKNTVYLQMNSLKPEDTAVYYCAKDRRTWRYGQVFSPYYYWGQGTQVTVSS | low polyreactivity
36 | QVQLVESGGGLVQAGGSLRLSCAASGSNFGVNAMGGYRQAPGKERELVAAITSGGGTYYTDSVKGRFTISRDNAKKTVYLQKNSLKPEATAVYYCMARVRGKQLVGRYDYWGQGTQVTVSS | high polyreactivity
37 | QVQLVESGGGLVQAGGSLRLSCAASGSNFHPNAMGSCRQAPGKERELVAAITKSGGSTYYADSVKGRFTISRDNAKNTVYLQMNSRKPEDTAVYYCNALRYRRVGTLGYDYWGQATQVTVSS | high polyreactivity
38 | QVQLVESGGGLVQAGGSLRLSCAASGSNFKSNAMGLYRPAPGKERELVAAINRSGAGTYYADSVKGRFTISRDNAKNTVYLQMNSLKPEDTAVYYCAAQSYSRRYDYWGQGTQVTVSS | high polyreactivity
39 | QVQLVESGGGLVQAGGSLRLSCAASGSNFLTYAMGRYRQAPGKEREFVAAISTSGVSTYYADSVKGRFTISRDNAKNTVYLQMNSLKPEDTAVYFCAAVYDLGYYGPIWAIVLDDYWGQGTQVTVSS | low polyreactivity
40 | QVQLVESGGGLVQAGGSLRLSCAASGSNFNYYTMGWYRQAPGKERELVAAITDSGGSTYYADSVMGRFTISRDNAKNTVYLQMNSLIPEDTAVYYCAAAVPELYEVRYHADYWGQGTQVTVST | low polyreactivity
41 | QVQLVESGGGLVQAGGSLRLSCAASGSNFPSYAMGWYTKAPGEEMEFVARISRGDDSTYYADSVKGRFTISRDNAKNTVYLQMNSLKPEDTAVYYCAADYPDVVYLEYDYWGQGTQVTVSS | low polyreactivity
